Experimental data: patent publication US20250163164A1 (LANOVA MEDICINES DEVELOPMENT, published 2025)
Positions count from the first letter of the chain named. Values joined by “and” are separate entries in the source; they are usually repeats but may differ in a detail not shown here. Equal values may be shown once. Read-outs that look alike come from different tables or passages of the source. One block for each binder: values may come before it.

Key:
[1] = biological target: T1, human interleukin 13 receptor subunit alpha 2 (IL-13RA2) (human, UniProt Q14627 27-380); assay: FACS on A375 cells
T1 construct: whole, on cells; also called IL-13Rα2; CD213A2
T1 sequence (looked up): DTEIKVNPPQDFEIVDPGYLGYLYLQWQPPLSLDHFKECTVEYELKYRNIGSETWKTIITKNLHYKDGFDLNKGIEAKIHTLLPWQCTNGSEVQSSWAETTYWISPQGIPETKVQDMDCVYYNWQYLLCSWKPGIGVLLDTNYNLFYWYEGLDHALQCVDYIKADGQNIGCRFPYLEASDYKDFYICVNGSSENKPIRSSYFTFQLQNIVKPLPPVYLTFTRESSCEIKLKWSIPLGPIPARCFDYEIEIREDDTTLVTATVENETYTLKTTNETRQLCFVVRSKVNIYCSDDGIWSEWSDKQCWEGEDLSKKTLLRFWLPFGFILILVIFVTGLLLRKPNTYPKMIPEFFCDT
Protocol: (§1) A375 cells that endogenously expressed IL-13RA2, were harvested from flasks. 100 μl of 1×10⁶ cells/ml of cells were incubated with primary chimeric antibodies in 3-fold serial dilutions starting from 300 nM to 0.002 nM for 30 minutes on ice. After being washed with 200 μl of FACS buffer twice, cells were incubated with secondary antibody for 30 minutes on ice. Cells were washed with 200 μl of FACS buffer twice and analyzed by FACS.
As shown in FIG. 3 and Table 4, the chimeric antibodies bound to human IL-13RA2 at different EC50.

[2] = biological target: T1, human interleukin 13 receptor subunit …; assay: FACS on A375 cells; remark: listed apart in the source
Protocol: as §1, with “humanized” for “chimeric”, “4-fold” for “3-fold”, “200” for “300”, “0.003” for “0.002”

[3] = biological target: T1, human interleukin 13 receptor subunit …; assay: cell-based or functional assay

EC50 [1]: 0.99 nM
Top (MFI) [1]: 17600 MFI
EC50 [2]: 0.33 nM and 0.41 nM
internalization EC50 (pHAb dye), A375 cells [3]: 0.74 nM
internalization EC50 (pHAb dye), CHO-K1/H_IL-13RA2 cells [3]: 2.37 nM
internalization EC50 (pHAb dye), HEK-293/H IL-13RA2 cells [3]: 2.42 nM
internalization Top (MFI), A375 cells [3]: 2720 MFI
internalization Top (MFI), CHO-K1/H_IL-13RA2 cells [3]: 19200 MFI
internalization Top (MFI), HEK-293/H IL-13RA2 cells [3]: 26000 MFI
B1: xi57F8H3F1 hIgG1 (antibody, V domains shown)
VH: QVQLQQPGAELVRPGASVKLSCKASGYTFTNYWMNWIKQRPEQGLEWIGRIDPYETETHYNQKFRDRAILTVDKSSSTAFMQLSGLTSEDSAVYYCARGYGHYYGVDYWGQGTSVTVSS
VL: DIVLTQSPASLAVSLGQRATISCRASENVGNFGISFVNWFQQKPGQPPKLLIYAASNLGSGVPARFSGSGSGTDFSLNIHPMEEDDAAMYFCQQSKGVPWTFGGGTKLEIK

EC50 [1]: 0.63 nM
Top (MFI) [1]: 18000 MFI
internalization EC50 (pHAb dye), A375 cells [3]: 0.66 nM
internalization EC50 (pHAb dye), CHO-K1/H_IL-13RA2 cells [3]: 1.42 nM
internalization EC50 (pHAb dye), HEK-293/H IL-13RA2 cells [3]: 1.65 nM
internalization Top (MFI), A375 cells [3]: 5500 MFI
internalization Top (MFI), CHO-K1/H_IL-13RA2 cells [3]: 18000 MFI
internalization Top (MFI), HEK-293/H IL-13RA2 cells [3]: 22800 MFI
B2: xi54A4F7 hIgG1 (antibody, V domains shown)
VH: EVKLVESGGGLVKPGGSLKLSCAASGFTFSSYGMSWVRQTPEKRLEWVATISGGGSYTYYPDSVKGRFTISRDNAKNNLYLQMSSLRSEDTALYYCARRDLRSAMDHWGQGTSVTVSS
VL: DIVMTQSQKFMSTSVGDRVSVTCRASQNVDINVAWYQQKPGQSPKSLIYSASYRYSGVPDRFTGSGSGTDFTLTISNVQSEDLAEYFCQQYNSYPLTFGGGTKLEIR

EC50 [1]: 0.82 nM
Top (MFI) [1]: 17300 MFI
internalization EC50 (pHAb dye), A375 cells [3]: 1 nM
internalization EC50 (pHAb dye), CHO-K1/H_IL-13RA2 cells [3]: 1.58 nM
internalization EC50 (pHAb dye), HEK-293/H IL-13RA2 cells [3]: 1.88 nM
internalization Top (MFI), A375 cells [3]: 5550 MFI
internalization Top (MFI), CHO-K1/H_IL-13RA2 cells [3]: 17200 MFI
internalization Top (MFI), HEK-293/H IL-13RA2 cells [3]: 23300 MFI
B3: xi62A8D8 hIgG1 (antibody, V domains shown)
VH: B2 VH with H107Y
VL: B2 VL with R24K, S46A, Y86F, S93N, R107K

EC50 [1]: 0.65 nM
Top (MFI) [1]: 18000 MFI
EC50 [2]: 0.26 nM and 0.359 nM and 0.45 nM
internalization EC50 (pHAb dye), A375 cells [3]: 0.77 nM
internalization EC50 (pHAb dye), CHO-K1/H_IL-13RA2 cells [3]: 1.52 nM
internalization EC50 (pHAb dye), HEK-293/H IL-13RA2 cells [3]: 1.98 nM
internalization Top (MFI), A375 cells [3]: 4310 MFI
internalization Top (MFI), CHO-K1/H_IL-13RA2 cells [3]: 17900 MFI
internalization Top (MFI), HEK-293/H IL-13RA2 cells [3]: 23500 MFI
B4: xi73A11E2 hIgG1 (antibody, V domains shown)
VH: B2 VH with K76R, S84N, H107Y
VL: B2 VL with R24K, S46A, Y86F, R107K

EC50 [1]: 0.7 nM
Top (MFI) [1]: 18100 MFI
internalization EC50 (pHAb dye), A375 cells [3]: ~0.437 nM
internalization EC50 (pHAb dye), CHO-K1/H_IL-13RA2 cells [3]: 0.91 nM
internalization EC50 (pHAb dye), HEK-293/H IL-13RA2 cells [3]: 1.31 nM
internalization Top (MFI), A375 cells [3]: 5170 MFI
internalization Top (MFI), CHO-K1/H_IL-13RA2 cells [3]: 17700 MFI
internalization Top (MFI), HEK-293/H IL-13RA2 cells [3]: 21600 MFI
B5: xi74B5E4 hIgG1 (antibody, V domains shown)
VH: B2 VH with K19R, S31T, H107Y
VL: B2 VL with R24K, S46A, S93T, R107K

EC50 [1]: 0.48 nM
Top (MFI) [1]: 15800 MFI
internalization EC50 (pHAb dye), A375 cells [3]: ~0.447 nM
internalization EC50 (pHAb dye), CHO-K1/H_IL-13RA2 cells [3]: 1.17 nM
internalization EC50 (pHAb dye), HEK-293/H IL-13RA2 cells [3]: 1.73 nM
internalization Top (MFI), A375 cells [3]: 4530 MFI
internalization Top (MFI), CHO-K1/H_IL-13RA2 cells [3]: 15900 MFI
internalization Top (MFI), HEK-293/H IL-13RA2 cells [3]: 22300 MFI
B6: xi62F6A8 hIgG1 (antibody, V domains shown)
VH: QVQIQQSGAELARPGASVMLSCKASGYTFTDYWMQWIKQRPGQGLEGIGAIYPGDGDTAYNQKFRGKATLTADKSSSTAYMQLNSLASEDSAVYFCARGATLLRPFPFWGQGTLVTVSA
VL: DIVMTQSHKFMSTSVGDRVSITCKASQDVSTAVAWYQQKPGQSPKLLIYSASYRYAGVPDRFTGSGSGTDFTFTISSVQAEDLAVYSCQQHYSIPPTFGGGTKLEIK
